In patent publication US11198713B2, “Agents modulating beta-catenin functions and methods thereof” (FOG PHARMACEUTICALS, INC., priority 2017, dated 2021):
Bridge positions count the residues as written; N and C are the ends. Square brackets hold non-standard residues; d marks the D form. Primed or numbered codes have the meaning given here. Ends that are not written are not given here. MB = Monomer B = PyrS, Alloc-pyrrolidine stapling residue (allyl carbamate on pyrrolidine N); R8 = C=CCCCCCC[C@@](C)(N)C(=O)O; S5 = C=CCCC[C@](C)(N)C(=O)O; PEG1′ = not defined here

How the values were obtained:
beta-catenin = target: T1, beta-catenin (Homo sapiens, UniProt P35222); details: reported in Grossmann et al.; cited from earlier work
T1 sequence (P35222 1-781): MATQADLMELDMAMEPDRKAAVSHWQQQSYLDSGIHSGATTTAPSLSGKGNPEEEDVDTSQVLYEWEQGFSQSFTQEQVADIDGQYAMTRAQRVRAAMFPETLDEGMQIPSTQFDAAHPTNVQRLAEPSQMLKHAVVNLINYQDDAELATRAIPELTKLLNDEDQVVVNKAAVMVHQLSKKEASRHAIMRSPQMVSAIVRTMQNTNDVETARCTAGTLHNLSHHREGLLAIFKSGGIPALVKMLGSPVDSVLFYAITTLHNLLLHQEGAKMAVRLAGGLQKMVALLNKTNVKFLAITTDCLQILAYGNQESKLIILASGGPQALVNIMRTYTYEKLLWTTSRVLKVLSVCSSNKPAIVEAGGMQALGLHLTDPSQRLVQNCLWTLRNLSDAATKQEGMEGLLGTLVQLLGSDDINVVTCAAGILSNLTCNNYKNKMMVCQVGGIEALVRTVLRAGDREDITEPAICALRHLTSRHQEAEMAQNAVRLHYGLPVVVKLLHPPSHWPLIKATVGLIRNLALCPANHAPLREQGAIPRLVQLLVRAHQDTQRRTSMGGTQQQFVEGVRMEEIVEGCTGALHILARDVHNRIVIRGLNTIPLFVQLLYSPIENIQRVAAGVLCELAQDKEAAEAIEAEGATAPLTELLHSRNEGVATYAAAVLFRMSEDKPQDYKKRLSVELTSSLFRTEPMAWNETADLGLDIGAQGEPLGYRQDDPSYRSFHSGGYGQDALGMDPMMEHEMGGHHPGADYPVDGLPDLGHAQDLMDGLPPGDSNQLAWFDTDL

full-length beta-catenin [1] = target: T2, full-length beta-catenin (UniProt P35222 2-781, limits assumed); assay: competition FP, grade of FP EC50 (+++: <=100 nM)
T2 construct: mature; also called full-length ß-Catenin; β-catenin
T2 sequence (looked up): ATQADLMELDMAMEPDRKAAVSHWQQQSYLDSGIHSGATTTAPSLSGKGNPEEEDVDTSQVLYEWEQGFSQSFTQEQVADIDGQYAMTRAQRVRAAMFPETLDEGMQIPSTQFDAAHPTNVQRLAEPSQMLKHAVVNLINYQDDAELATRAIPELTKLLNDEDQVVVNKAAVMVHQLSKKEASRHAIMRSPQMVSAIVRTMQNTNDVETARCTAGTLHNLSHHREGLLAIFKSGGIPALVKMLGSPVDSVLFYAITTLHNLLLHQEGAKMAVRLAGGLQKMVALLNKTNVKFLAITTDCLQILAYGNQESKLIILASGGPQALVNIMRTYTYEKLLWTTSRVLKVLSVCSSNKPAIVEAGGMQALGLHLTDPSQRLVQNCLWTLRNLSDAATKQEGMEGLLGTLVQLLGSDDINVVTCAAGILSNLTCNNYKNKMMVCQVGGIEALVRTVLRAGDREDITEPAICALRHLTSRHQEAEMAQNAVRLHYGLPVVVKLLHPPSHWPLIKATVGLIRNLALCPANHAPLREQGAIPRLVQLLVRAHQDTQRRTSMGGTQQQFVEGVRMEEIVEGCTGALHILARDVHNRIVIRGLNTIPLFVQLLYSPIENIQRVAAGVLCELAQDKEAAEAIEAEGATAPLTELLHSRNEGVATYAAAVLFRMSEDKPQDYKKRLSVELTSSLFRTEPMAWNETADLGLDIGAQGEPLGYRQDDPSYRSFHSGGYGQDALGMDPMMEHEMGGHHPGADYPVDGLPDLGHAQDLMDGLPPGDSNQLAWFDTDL
Procedure, shortened: (§1)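 Compound 3-fold serially diluted from 5 µM in Tris pH 8.0, 250 mM NaCl buffer, added to premixed 15 nM full-length β-catenin and 20 nM FITC-labelled stapled axin-site peptide probe. Incubated 15 min in the dark, polarization read in duplicate.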

full-length beta-catenin [2] = target: T2, full-length beta-catenin; assay: competition FP, displacement of a labeled probe from the axin site
Procedure: In some embodiments, a competition fluorescence polarization assay is used to assess binding of provided compounds to beta-catenin. In an exemplary procedure, solutions of provided compounds, e.g., provided stapled peptides, were prepared in a buffer (e.g., 50 mM Tris pH 8.0, 250 mM NaCl, 2% glycerol, 0.5 mM EDTA, 0.02% w/v sodium azide) using a 3-fold serial dilution from 5 µM. Probe solution (15 nM full-length ß-Catenin, 20 nM FITC labeled peptide in buffer) was prepared and incubated for a period of time, e.g., 5 minutes, and the a volume, e.g., 40 µL per well plated in suitable plate, e.g., a black polystyrene 384-well plate (Corning). Equal volume of the serial diluted peptide was added to the plate and incubated protected from light for 15 minutes prior to read. Reads were performed on a Spectramax M5 (Molecular Devices) in duplicate. Suitable probe was FITC-PEG1-PQ-S5-ILD-S5-HVRRVWR (SEQ ID NO: 1) (hydrocarbon staple formed by two S5 via olefin metathesis) and/or FITC-bA-PQ-S5-ILD-S5-HVRRVWR (SEQ ID NO: 3) (hydrocarbon staple formed by two S5 via olefin metathesis). […] Another peptide, FPO217c (Ac-AR_8ILDAHIM$B5$RVW (SEQ ID NO: 280), with N-terminal proline removed and valine replaced with isoleucine compared to FP0025c) was prepared.

full-length beta-catenin [3] = target: T2, full-length beta-catenin; assay: competition FP; control of Table 5
full-length beta-catenin [4] = target: T2, full-length beta-catenin; assay: competition FP, grade of FP EC50 (++: 100-500 nM)
Procedure, shortened: as §1

## Ac-PEG1-RRWPRS5ILDS5HVRRVWR (SEQ ID NO: 278) ({Ac-PEG1′}-RRWPR[S5]ILD[S5]HVRRVWR; staple 6-10) [StAx-35R, "3 amino acids were added to the N-terminus of the peptide and one other Q→R mutation was made ... the resulting peptide StAx-35R"]
beta-catenin
  affinity compared to StAx-33: reduced

## Ac-PA[R8]ILDAHV[MB]RVW-NH2 (staple 3-10) [FP0025c]
full-length beta-catenin [1]
  FP EC50: ≤ 100 nM
full-length beta-catenin [2]
  EC50: < 100 nM

B1: FP0787s (peptide)
peptide: Ac-PQ[S5]ILD[S5]HVRRVWR-NH2
modifications: staple 3-7
SMILES: CC[C@H](C)[C@@H]1NC(=O)[C@@](C)(NC(=O)[C@H](CCC(N)=O)NC(=O)[C@@H]2CCCN2C(C)=O)CCCC=CCCC[C@@](C)(C(=O)N[C@@H](Cc2c[nH]cn2)C(=O)N[C@H](C(=O)N[C@@H](CCCNC(=N)N)C(=O)N[C@@H](CCCNC(=N)N)C(=O)N[C@H](C(=O)N[C@@H](Cc2c[nH]c3ccccc23)C(=O)N[C@@H](CCCNC(=N)N)C(N)=O)C(C)C)C(C)C)NC(=O)[C@H](CC(=O)O)NC(=O)[C@H](CC(C)C)NC1=O
notes: also called S5/S5
full-length beta-catenin [3]
  EC50: ~100 nM
full-length beta-catenin [4]
  FP EC50: 100 to 500 nM
